Consider 1 substance from patent publication US20060141569A1, “Compositions and methods for the assay of G-protein coupled receptors and their ligands” (priority 2004, published 2006).

The test concerns the target human CRF1 receptor (human) (UniProt P34998). Description: cell-based or functional assay.

Sequence of human CRF1 receptor (human) (P34998 24-415): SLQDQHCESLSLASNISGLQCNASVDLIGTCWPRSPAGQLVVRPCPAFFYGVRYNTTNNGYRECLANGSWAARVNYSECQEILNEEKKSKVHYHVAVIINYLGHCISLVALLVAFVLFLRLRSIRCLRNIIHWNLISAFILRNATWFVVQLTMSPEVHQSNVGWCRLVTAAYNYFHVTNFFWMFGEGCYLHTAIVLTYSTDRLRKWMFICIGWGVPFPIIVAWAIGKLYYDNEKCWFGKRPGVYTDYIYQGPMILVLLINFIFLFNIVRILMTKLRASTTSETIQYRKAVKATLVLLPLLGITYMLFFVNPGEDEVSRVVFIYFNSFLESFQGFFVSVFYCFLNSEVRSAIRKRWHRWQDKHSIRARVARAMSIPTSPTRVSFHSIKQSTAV

“sauvagine (from UniProt P01144 1-40) (peptide)” displayed an FLIPR Ca^2+ response EC50, CHEM-1 cells of 12 nM; an FLIPR EC50, CRF1/CHEM-1 cells of 10 nM; a cAMP response EC50, CHEM-1 cells of 4.9 nM; a cAMP response EC50, CHO cells of 8.4 nM.
